The record followed here is patent US20090155250A1 (US Dept. of Health and Human Services, published 2009).

Test [1] deals with T1, BSA (UniProt P02769 25-607).
T1 construct: Unrelated control protein
As to the kind of experiment: ELISA, wells coated with the unrelated protein, IgG titrated.

Test [2] concerns the target T1, BSA. Nature of the test: ELISA, protein coated on wells.

T1 sequence (P02769 25-607 limits assumed): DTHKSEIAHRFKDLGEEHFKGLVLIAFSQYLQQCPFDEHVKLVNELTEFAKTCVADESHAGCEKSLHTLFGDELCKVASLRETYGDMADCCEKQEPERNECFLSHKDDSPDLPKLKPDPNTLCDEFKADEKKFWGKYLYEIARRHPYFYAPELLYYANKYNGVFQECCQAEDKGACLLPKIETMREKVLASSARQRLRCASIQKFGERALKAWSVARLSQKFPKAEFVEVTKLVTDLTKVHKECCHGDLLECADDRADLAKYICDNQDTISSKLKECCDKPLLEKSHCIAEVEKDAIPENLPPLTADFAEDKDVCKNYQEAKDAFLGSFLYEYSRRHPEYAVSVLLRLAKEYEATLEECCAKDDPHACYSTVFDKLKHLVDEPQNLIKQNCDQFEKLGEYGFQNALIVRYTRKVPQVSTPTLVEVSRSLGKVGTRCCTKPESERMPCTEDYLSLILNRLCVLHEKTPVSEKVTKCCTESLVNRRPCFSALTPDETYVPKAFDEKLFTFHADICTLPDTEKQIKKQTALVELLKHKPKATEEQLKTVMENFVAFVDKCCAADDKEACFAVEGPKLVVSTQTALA

B1: chimpanzee/human anti-B5 MAb 8AH8AL (antibody, V domains shown)
VH: EVQLLESGGGLIKPGGSLRLSCAASGFIFRDYNINWVRQAPGKGLEWLGFIRTRASGRSTEYSASVKGRFTISRDDSKNIAYLHINSLKMEDTAVYYCAKKGDSYYYMDFWGKGTAVTVS
VL: ELALTQPASVSGSPGQSITISCTGGRSDLGDSNFVSWYQQYPGKAPKLLIYQVNKRPSGVPDRFSASKSANTASLTISGLQTEDEADYFCSSYTTTSTYVFGIGTKVVVLG
notes: also called anti-B5 8AH8AL; Anti-B5 8AH8AL
In the case of B1, the binding result with BSA [1] is listed as “no binding (tested: 10^4 ng/ml)”.

B2: chimpanzee/human anti-B5 MAb 8AH7AL (antibody, V domains shown)
VH: EVQLLESGGGLIKPGGSLRLSCAASGFIFRDYNINWVRQAPGKGLEWLGFIRTRASGRSTEYSASVKGRFTISRDDSKNIAYLHINSLKMEDTAVYYCAKKGDSYYYMDFWGKGTAVTVS
VL: ELALTQPPSVSGSPGQSITISCTGTSSDVGGHNGVSWYQQYPGKAPKVMIYEVNKRPSGVSNRLSGSKSGNTASLTISGLQAEDEGDYYCSSYRNGGSVVFGGGTKLTVLG
notes: also called anti-B5 8AH7AL
Regarding B2, the binding result in the test with BSA [2] was “no binding”.
